Experimental data: US20200405759A1 (UCL BUSINESS, published 2020)

Target: T1, human ROR1-Fz domain with Q(261)H and I(254)V (human, UniProt Q01973 165-299)
T1 construct: domain: Fz; it is not clear whether the construct was Fz only or a longer ROR1
Test: antibody binding to point mutants of human ROR1, FIG. 7

T1 sequence (Q01973 165-299 I254V/Q261H): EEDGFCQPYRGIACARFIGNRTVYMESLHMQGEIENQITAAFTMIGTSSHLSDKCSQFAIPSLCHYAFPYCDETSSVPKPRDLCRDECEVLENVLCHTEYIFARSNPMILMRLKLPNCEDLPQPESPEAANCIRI

binding result: no binding
B1: Clone F anti-ROR1 antibody (whole immunoglobulin) (antibody, V domains shown)
VH: EVQLVESGGGLVQPGRSLKLSCAASGFIFSEHNMAWVRQAPKKGLEWVATISDDGRNTYYRDSMRGRFTISRENARSTLYLQLDSLRSEDTATYYCASHRYNLFDSWGQGVMVTVSS
VL: DIQMTQSPSFLSASVGDRVTINCKASQNIDRYLNWYQQKLGEAPKRLLYNTNKLQTGIPSRFSGSGSATDFTLTISSLQPEDFATYFCLQYNSLPLTFGSGTKLEIK
notes: Rat variable domains; also called clone F antibody
